Assay results reported in article PMC8373112.

System: RqcH-HTF wild-type (Bacillus subtilis)
Assay: EMSA
Conditions: native tRNA modifications, deacylated; EMSA: HEPES:Polymix buffer, 5 mM Mg2+, 0.1 uM tRNA, 1 uM mRNA(MVF) competitor, 37 C 5 min, gel at 4 C; pull-down: HEPES:Polymix pH 7.5, 1 mM DTT, 5 mM MgOAc …

## tRNAAla
  K half: 190 nM

## tRNAVal
  K half: 390 nM

## tRNALys
  K half: 310 nM
